Read-outs that look alike come from different tables or passages of the source.
Columns and labels:
[1] = target: T1, human TIGIT expressed on cells (human, UniProt Q495A1 22-244); assay: FACS, cells overexpressing target
T1 construct: whole, on cells; also called cells overexpressing human TIGIT
T1 sequence (looked up): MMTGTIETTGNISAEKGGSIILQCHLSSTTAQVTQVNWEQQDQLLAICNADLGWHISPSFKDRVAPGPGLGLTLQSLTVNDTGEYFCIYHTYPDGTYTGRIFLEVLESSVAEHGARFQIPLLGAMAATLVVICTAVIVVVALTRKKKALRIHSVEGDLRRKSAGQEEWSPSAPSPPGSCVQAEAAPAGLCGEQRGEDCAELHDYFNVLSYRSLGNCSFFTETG
Method: (§1) The expression plasmid carrying human or cynomolgus monkey PVRIG gene sequence was transfected into HEK293 cells, and the over-expressing stable transfection monoclonal cell strain was obtained by antibiotic screening and infinite dilution. Overexpressing cells were seeded into a 96-well plate at 2×10⁵ cells/per well. The cells were centrifuged at 300 g for 5 min, the supernatant was then removed, 100 μL of the test antibody was added, and the mixture was incubated at 4° C. for 1 h. The mixture was centrifuged, the supernatant was removed, the plate was washed 3 times with 200 μL of wash buffer (PBS+2% FBS), and then 100 μL of an anti-human IgG secondary antibody (Invitrogen, A-11013) labeled with Alexa Fluor 488 diluted at 1:500 was added. The mixture was incubated at 4° C. for 1 h. The plate was centrifuged, and the supernatant was removed. The plate was washed 3 times with 200 μL of wash buffer (PBS+2% FBS). The cells were resuspended in 100 μL of PBS and tested on a flow cytometer (BD FACS Calibur or BD FACS Canto_II).
(§2) Similarly to Examples 4, 5 and 6, the binding of humanized anti-PVRIG/TIGIT bispecific antibodies to human and cynomolgus monkey TIGIT and blocking of binding of human TIGIT to ligand were detected, where PVRIG protein was replaced with TIGIT and PVRL2 was replaced with PVR.

[2] = target: T2, cynomolgus monkey TIGIT expressed on cells (cynomolgus monkey, UniProt A0A7N9I9V4 89-312); assay: FACS, cells overexpressing target
T2 construct: whole, on cells; also called cells overexpressing cynomolgus monkey TIGIT
Method: as §1, §2

[3] = target: T3, human TIGIT recombinant protein (human, UniProt Q495A1 22-141, limits assumed); assay: ELISA, coated antigen
T3 construct: construct not described; also called human TIGT recombinant protein
T3 sequence (looked up): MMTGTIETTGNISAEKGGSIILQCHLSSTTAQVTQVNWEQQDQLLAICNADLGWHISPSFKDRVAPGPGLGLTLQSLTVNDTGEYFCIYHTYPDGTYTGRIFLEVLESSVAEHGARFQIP
Method: (§3) A human, cynomolgus monkey, or mouse PVRIG protein (at a concentration of 1 μg/mL) was coated on a 96-well microplate at 100 μL per well, and incubated overnight at 4° C. The plate was washed three times with wash buffer at 250 μL per well. For each wash, the plate was shaken for 10 s to ensure adequate cleaning. A blocking solution (PBS+0.05% Tween20+1% BSA) was added at 300 μL/well, and the plate was incubated at room temperature for 1 h. The plate was washed three times with wash buffer at 250 μL per well. For each wash, the plate was shaken for 10 s to ensure adequate cleaning. Dilutions of the test anti-PVRIG antibodies were added at 100 μL/well. The plate was incubated at 37° C. for 1 h. The plate was washed three times with wash buffer at 250 μL per well. The […] anti-human IgG secondary antibody (Sigma, A8667) was added at 100 μL per well. The plate was incubated at 37° C. for 1 h. The plate was washed three times with wash buffer at 250 μL per well. TMB was added at 100 μL/well, and the plate was incubated in the dark for 15 min. 0.16 M sulfuric acid was added at 50 μL/well. The OD values at 450 nm were read by using a Thermo MultiSkanFc microplate reader, and the EC₅₀ values of the binding of the anti-PVRIG antibodies to PVRIG were calculated.
as §2

[4] = target: cynomolgus monkey TIGIT recombinant protein (cynomolgus monkey, UniProt A0A7N9I9V4 89-209); assay: ELISA, coated antigen
Method: as §3, §2

[5] = target: T3, human TIGIT recombinant protein; assay: competition ELISA; human TIGIT, competitor human PVR
Method: (§4) The h-PVRIG-mIgG2a Fc protein (at a concentration of 1 μg/mL) was coated on the 96-well microplate at 100 μL per well, and incubated overnight at 4° C. The plate was washed three times with wash buffer at 250 μL per well. For each wash, the plate was shaken for 10 s to ensure adequate cleaning. A blocking solution was added at 300 μL/well, and the plate was incubated at room temperature for 1 h. The plate was washed three times with wash buffer at 250 μL per well. For each wash, the plate was shaken for 10 s to ensure adequate cleaning. 50 μL of diluted test anti-PVRIG antibody and 50 μL of his-tagged ligand PVRL2 were added to each well, and the plate was incubated at 37° C. for 1 h. The plate was washed three times with wash buffer at 250 μL per well. The HRP-labeled anti-his-tagged secondary antibody (Genscrpit) diluted at 1:2000 was added at 100 μL per well. The plate was incubated at 37° C. for 1 h. The plate was washed three times with wash buffer at 250 μL per well. TMB was added at 100 μL/well, and the plate was incubated in the dark for 15 min. 0.16 M sulfuric acid was added at 50 μL/well. OD values at 450 nm were measured using a Thermo MμtLtiSkanFc microplate reader, and the IC₅₀ values of the anti-PVRIG antibodies blocking the binding of PVRIG to PVRL2 were calculated.
as §2

[6] = target: T1, human TIGIT expressed on cells; assay: FACS, cells overexpressing target; remark: listed apart in the source
Method: as §1
(§5) The experiments were carried out according to the methods of Example 4, Example 5 and Example 6 (corresponding receptors and ligands were replaced with human TIGIT and human PVR), and the results are shown in Table 27.

[7] = target: T3, human TIGIT recombinant protein; assay: ELISA, coated antigen; remark: listed apart in the source
Method: as §3, §5

[8] = target: T3, human TIGIT recombinant protein; assay: competition ELISA; human TIGIT, competitor human PVR; remark: listed apart in the source
Method: as §4, §5

[9] = target: T4, cynomolgus monkey PVRIG expressed on cells (cynomolgus monkey, UniProt A0A2K5WVV8 1-322); assay: FACS, cells overexpressing target
T4 construct: whole, on cells; also called Monkey PVRIG FACS; cells overexpressing cynomolgus monkey PVRIG
T4 sequence: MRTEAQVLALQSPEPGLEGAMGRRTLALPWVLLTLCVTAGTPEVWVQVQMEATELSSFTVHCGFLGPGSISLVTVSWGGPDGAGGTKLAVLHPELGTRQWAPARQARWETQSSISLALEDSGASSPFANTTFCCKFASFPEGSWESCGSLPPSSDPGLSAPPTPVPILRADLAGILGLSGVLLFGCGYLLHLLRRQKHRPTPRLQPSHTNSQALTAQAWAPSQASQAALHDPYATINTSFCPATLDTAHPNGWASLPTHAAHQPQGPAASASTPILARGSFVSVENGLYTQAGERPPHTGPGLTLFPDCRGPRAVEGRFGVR
Method: as §1
(§6) Binding of the humanized anti-PVRIG/TIGIT bispecific antibodies to human and cynomolgus monkey PVRIG and their blocking of the ligand of human PVRIG were detected according to the methods of Examples 4, 5 and 6.

[10] = target: T5, his-tagged cynomolgus monkey PVRIG (cyno-PVRIG-his) recombinant protein (cynomolgus monkey); assay: ELISA, coated antigen
T5 construct: expressed in HEK293, purified by Ni-NTA; also called Monkey PVRIG-his; cynomolgus monkey PVRIG recombinant protein
T5 chain: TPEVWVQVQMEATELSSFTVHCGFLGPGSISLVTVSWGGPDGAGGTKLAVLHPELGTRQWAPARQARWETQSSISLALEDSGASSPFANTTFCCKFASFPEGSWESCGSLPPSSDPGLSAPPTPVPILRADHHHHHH
Method: as §3, §6

[11] = target: T6, human TIGIT antigen (AcroBiosystem, TIT-H52H3) (human, UniProt Q495A1 22-141); assay: SPR (Biacore X100), antibody captured on Protein A chip, 1:1 fit
T6 sequence (looked up): T3 sequence (looked up)
Source text: The affinity of the humanized bispecific antibodies for human PVRIG, cynomolgus monkey PVRIG and human TIGIT was detected using Biacore. Humanized bispecific antibodies were each captured on a Protein A biosensor chip (GE lifesciences, 29127557) of a Biacore instrument (Biacore X100, GE), and then human PVRIG antigen (AcroBiosystem, PVG-H52H4), cynomolgus monkey PVRIG antigen (SEQ ID NO: 1), or human TIGIT antigen (AcroBiosystem, TIT-H52H3) at a series of concentration gradients each flowed over the chip surface. The reaction signals were detected in real time using a Biacore instrument (Biacore X100, GE) to obtain association and dissociation curves. The data obtained from the experiment were fitted using the (1:1) Binding model with the BiacoreX100 evaluation software 2.0 GE to obtain affinity values (see Table 31).

B1: humanized anti-PVRIG/TIGIT bispecific antibody 1708-151H8 (bispecific antibody, human IgG4 S228P, kappa)
heavy: not shown
light: DIQMTQSPSSLSASVGDRVTITCRASENIYSYLAWYQQKPGKSPKLLIYNARTLAEGVPSRFSGSGSGTDFTLTISSLQPEDFATYYCQYHSGSPLPFGGGTKVEIKRTVAAPSVFIFPPSDEQLKSGTASVVCLLNNFYPREAKVQWKVDNALQSGNSQESVTEQDSKDSTYSLSSTLTLSKADYEKHKVYACEVTHQGLSSPVTKSFNRGEC
EC50 [1]: 0.006 nM | EC50 [2]: 0.011 nM | EC50 [3]: 0.184 nM | EC50 [4]: 0.135 nM | IC50 [5]: 1.09 nM

B2: anti-PVRIG/TIGIT bispecific antibody 1708-151-3 (bispecific antibody, human IgG4 S228P, kappa)
heavy: not shown
light: HVQLVESGGGSVQAGGSLRLSCVASASGFTYRPYCMAWFRQAPGKEREAVAGIDIFGGTTYADSVKGRFTASRDNAGFSLFLQMNDLKPEDTAMYYCAAGDSPDGRCPPLGQGLNYWGQGTQVTVSSGGGGSGGGGSDIQMTQSPSSLSASVGDRVTITCRASENIYSYLAWYQQKPGKSPKLLIYNARTLAEGVPSRFSGSGSGTDFTLTISSLQPEDFATYYCQYHSGSPLPFGGGTKVEIKRTVAAPSVFIFPPSDEQLKSGTASVVCLLNNFYPREAKVQWKVDNALQSGNSQESVTEQDSKDSTYSLSSTLTLSKADYEKHKVYACEVTHQGLSSPVTKSFNRGEC
EC50 [6]: 1.92 nM | EC50 [7]: 0.069 nM | IC50 [8]: 0.62 nM

B3: anti-PVRIG/TIGIT bispecific antibody 1708-151-4 (bispecific antibody, human IgG4 S228P, kappa)
heavy: not shown
light: DIQMTQSPSSLSASVGDRVTITCRASENIYSYLAWYQQKPGKSPKLLIYNARTLAEGVPSRFSGSGSGTDFTLTISSLQPEDFATYYCQYHSGSPLPFGGGTKVEIKRTVAAPSVFIFPPSDEQLKSGTASVVCLLNNFYPREAKVQWKVDNALQSGNSQESVTEQDSKDSTYSLSSTLTLSKADYEKHKVYACEVTHQGLSSPVTKSFNRGECGGGGSGGGGSHVQLVESGGGSVQAGGSLRLSCVASASGFTYRPYCMAWFRQAPGKEREAVAGIDIFGGTTYADSVKGRFTASRDNAGFSLFLQMNDLKPEDTAMYYCAAGDSPDGRCPPLGQGLNYWGQGTQVTVSS
EC50 [6]: 1 nM | EC50 [7]: 0.054 nM | IC50 [8]: 0.69 nM

B4: anti-TIGIT antibody 1708 (antibody, human IgG4 S228P, kappa, V domains shown)
VH: EVQLVQSGAEVKKPGASVKVSCKASGYTFTNYWMHWVRQAPGQGLEWMGRIDPDSTGSKYNEKFKTRVTMTRDTSTSTVYMELSSLRSEDTAVYYCAREGAYGYYFDYWGQGTLVTVSS
VL: DIQMTQSPSSLSASVGDRVTITCRASENIYSYLAWYQQKPGKSPKLLIYNARTLAEGVPSRFSGSGSGTDFTLTISSLQPEDFATYYCQYHSGSPLPFGGGTKVEIKR
notes: human IgG4 subtype with S228P; kappa light chain
EC50 [6]: 0.74 nM | binding result [9]: no binding | EC50 [1]: 0.0027 nM | EC50 [2]: 0.003 nM | EC50 [7]: 0.055 nM | EC50 [3]: 0.133 nM | EC50 [4]: 0.104 nM | IC50 [5]: 0.779 nM | binding result [10]: no binding | IC50 [8]: 0.87 nM

B5: humanized anti-PVRIG/TIGIT bispecific antibody 1708-39H2 (bispecific antibody, human IgG4 S228P, kappa)
heavy: not shown
light: B1 light
EC50 [1]: 0.005 nM | EC50 [2]: 0.005 nM | EC50 [3]: 0.135 nM | EC50 [4]: 0.105 nM | IC50 [5]: 0.812 nM | Kd [11]: 0.0808 nM | koff [11]: 0.000113 s⁻¹ | kon [11]: 1.39e+06 M⁻¹ s⁻¹

Source: patent US20240376207A1 (JIANGSU HENGRUI PHARMACEUTICALS, published 2024)
